Assay in all cases: SPR ProteOn, SA immobilized, pH 7.4
In experiment [1] the target is T1, dog serum albumin (Abcam 119814) (dog, UniProt P49822 25-608).
T1 construct: Bought protein; also called dog SA

The target in experiment [2] is T2, guinea pig serum albumin (Gentaur GPSA62) (guinea pig).
T2 construct: Bought protein; also called guinea pig SA

The target of experiment [3] is T3, rat serum albumin (Sigma-Aldrich A4538) (rat, UniProt P02770 25-608).
T3 construct: Bought protein; also called rat SA

For experiment [4], the target named is T4, pig serum albumin (Sigma-Aldrich A4414) (pig, UniProt P08835 25-607).
T4 construct: Bought protein; also called pig SA

Experiment [5] concerns the target T5, human serum albumin (Sigma-Aldrich A3782) (human, UniProt P02768 25-609).
T5 construct: Bought protein; also called HSA; human SA

In experiment [6] the target is T6, mouse serum albumin (Albumin Bioscience 2601) (mouse, UniProt P07724 25-608).
T6 construct: Bought protein; also called mouse SA

The target of experiment [7] is T7, cynomolgus monkey serum albumin (generated in-house) (cynomolgus monkey, UniProt A2V9Z4 25-608, limits assumed).
T7 construct: also called cyno SA

B1: serum albumin binder of SEQ ID NO:19 (invention), T023500029 (VHH)
VHH: EVQLVESGGGVVQPGDSLRLSCAASGGTFSTYVMGWFRQAPGKEREFVSAISQNSIHTYYANSVKGRFTISRDNSKNTVYLQLNSLRPEDTALYYCAASRFTSWYTADYEYDYWGQGTLVTVSS
notes: No tag is mentioned there
Broadly, the koff is the first-order rate constant of dissociation. The kon is the second-order rate constant of association. The term Kd denotes a measure of binding affinity in units of concentration. For the molecule B1, the koff in experiment [1] is 0.00084 s⁻¹; in experiment [2] it was 0.00031 s⁻¹; in experiment [3] it was 8e-05 s⁻¹; in experiment [4] it was 0.0046 s⁻¹; in experiment [5], 0.00027 s⁻¹; in experiment [6] it was 0.00025 s⁻¹. In addition, the koff in experiment [7] came out at 0.00023 s⁻¹. Also, the kon was determined as 720000 M⁻¹ s⁻¹ in experiment [1]; 1e+06 M⁻¹ s⁻¹ in experiment [2]; 1.2e+06 M⁻¹ s⁻¹ in experiment [3]; 100000 M⁻¹ s⁻¹ in experiment [4]; 610000 M⁻¹ s⁻¹ in experiment [5]; 910000 M⁻¹ s⁻¹ in experiment [6]. In experiment [7], this molecule came in with a kon of 520000 M⁻¹ s⁻¹. Besides, binding in experiment [2] was put at a Kd of 0.3 nM.

Source of the values: patent US20230060574A1 (Ablynx, published 2023).
